Experimental data: patent publication US20220096653A1, “CONJUGATE COMPRISING LIGAND AND CEACAM5 ANTIBODY FAB FRAGMENT” (ASTELLAS PHARMA INC., priority 2019, published 2022)

T1: CEACAM5 (R&D Systems, 4128-CM-050) (human, UniProt P06731 35-685)
T1 construct: Immobilised on the ELISA plate; also called human CEACAM5
T1 sequence (looked up): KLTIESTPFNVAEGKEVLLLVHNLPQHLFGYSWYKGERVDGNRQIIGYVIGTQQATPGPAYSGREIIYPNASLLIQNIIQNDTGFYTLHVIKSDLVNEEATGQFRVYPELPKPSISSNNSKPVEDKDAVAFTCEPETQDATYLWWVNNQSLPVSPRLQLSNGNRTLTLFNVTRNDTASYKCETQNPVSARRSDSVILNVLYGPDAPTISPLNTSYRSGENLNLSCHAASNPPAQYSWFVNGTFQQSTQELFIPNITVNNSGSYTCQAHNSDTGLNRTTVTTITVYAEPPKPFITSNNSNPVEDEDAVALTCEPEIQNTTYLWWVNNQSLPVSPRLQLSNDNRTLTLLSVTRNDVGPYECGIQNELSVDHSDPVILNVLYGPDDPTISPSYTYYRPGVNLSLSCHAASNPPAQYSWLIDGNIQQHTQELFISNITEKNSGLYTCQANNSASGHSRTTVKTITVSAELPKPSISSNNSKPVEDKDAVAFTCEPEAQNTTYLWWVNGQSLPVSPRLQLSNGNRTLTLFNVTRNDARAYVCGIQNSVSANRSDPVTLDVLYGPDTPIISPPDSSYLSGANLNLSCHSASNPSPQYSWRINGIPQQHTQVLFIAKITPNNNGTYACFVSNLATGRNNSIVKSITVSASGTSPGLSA

B1: (Y-S1-X)p-Fab^2 with Y Gd/DOT[A], S1 - (bond), X -Gly-Ile-NH-(CH2)2-Z1(#N)- (Fab, V domains shown)
VH: EVQLVESGGGLVQPGGSLRLSCAASGFNIRDTYMHWVRQAPGKGLEWVARIDPANGNSRYVPKFQGRFTISADTSRNTAYLQMNSLRAEDTAVYYCAPFGYYVSDYAMAYWGQGTLVTVSS
VL: DIQLTQSPSSLSASVGDRVTITCRAGESVDIFGVGFLHWYQQKPGKAPKLLIYRASNLESGIPSRFSGSGSRTDFTLTISSLQPEDFATYYCQQTNEDPYTFGQGTKVEIKR
modifications: labeling may sit on this chain; sites not stated; labeling portion (MW 852) on amino groups of the Fab, sites and chain not stated; 1-3 per Fab by MS
notes: also called Ex-No 3; conjugate 3
B2: (Y-S1-X)p-Fab^2 with Y Gd/DOTA, S1 - (bond), X -Gly-Tyr*-CH2-C-(═O)-Lys*-Z2(#N)- (Fab, V domains shown)
VH: B1 VH
VL: B1 VL
modifications: labeling may sit on this chain; sites not stated; labeling portion (MW 1046) on amino groups of the Fab, sites and chain not stated; 1-3 per Fab by MS
notes: also called Ex-No 4; conjugate 4
B3: (Y-S1-X)p-Fab^2 with Y Gd/DOTA, S1 - (bond), X -Gly-Lys*-Z2(#S)- (Fab, V domains shown)
VH: B1 VH
VL: B1 VL
modifications: labeling may sit on this chain; sites not stated; labeling portion (MW 926) on amino groups of the Fab, sites and chain not stated; 1-2 per Fab by MS
notes: also called Ex-No 5; conjugate 5
B4: [Gd/DOTA-NH-CH2-(1,4-Ph)-NH-C(═O)-Met-Ile-NH-(CH2)2-Z1(#N)]p-Fab^5 (Fab, V domains shown)
VH: QVQLVQSGAEVKKPGASVKVSCKASGYTFTNYGLSWVRQAPGQGLEWMGENHPGSGIIYHNEKFRGRVTLTADRSTSTAYMELSSLRSEDTAVYYCARSSGTRGFDYWGQGTLVTVSS
VL: DVVMTQTPLSLSVTPGQPASISCRSSQSIVHSNGNTYLEWYLQKPGQSPQLLIYRVSNRFSGVPDRFSGSGSGTDFTLKISRVEAEDVGVYYCFQGSHGPWTFGQGTKLEIKR
modifications: labeling may sit on this chain; sites not stated; labeling portion (MW 1074) on amino groups of the Fab, sites and chain not stated; 1-2 per Fab by MS; Gln 1 pyroglutamic acid as Fab^5 is defined in paragraph 370
B5: Ex-No 102, conjugate of Fab^5 (structure given only as drawing CHEM-US-00161) (Fab, V domains shown)
VH: B4 VH
VL: B4 VL
modifications: labeling may sit on this chain; sites not stated; low molecular weight molecule (MW 1278) bound to the Fab, sites and chain not stated; 1-2 per Fab by MS; Gln 1 pyroglutamic acid as Fab^5 is defined in paragraph 370
B6: Ex-No 103, conjugate of Fab^5 (structure given only as drawing CHEM-US-00162) (Fab, V domains shown)
VH: B4 VH
VL: B4 VL
modifications: labeling may sit on this chain; sites not stated; low molecular weight molecule (MW 1115) bound to the Fab, sites and chain not stated; 1-2 per Fab by MS; Gln 1 pyroglutamic acid as Fab^5 is defined in paragraph 370
B7: Ex-No 105, conjugate of Fab^5 (structure given only as drawing CHEM-US-00163) (Fab, V domains shown)
VH: B4 VH
VL: B4 VL
modifications: labeling may sit on this chain; sites not stated; low molecular weight molecule (MW 1190) bound to the Fab, sites and chain not stated; 1-3 per Fab by MS; Gln 1 pyroglutamic acid as Fab^5 is defined in paragraph 370
B8: Ex-No 106, conjugate of Fab^5 (structure given only as drawing CHEM-US-00164) (Fab, V domains shown)
VH: B4 VH
VL: B4 VL
modifications: labeling may sit on this chain; sites not stated; low molecular weight molecule (MW 1380) bound to the Fab, sites and chain not stated; 1-3 per Fab by MS; Gln 1 pyroglutamic acid as Fab^5 is defined in paragraph 370
B9: [Gd/DOTA-NH-CH2-(1,4-Ph)-NH-C(═O)-Met-Ile-NH-(CH2)2-Z1(#S)]p-Fab^5 (Fab, V domains shown)
VH: B4 VH
VL: B4 VL
modifications: labeling may sit on this chain; sites not stated; labeling portion (MW 1175) bound via 2-iminothiolane-treated amino groups of the Fab, sites and chain not stated; 1-3 per Fab by MS; Gln 1 pyroglutamic acid as Fab^5 is defined in paragraph 370
B10: Ex-No 109, conjugate of Fab^5 (structure given only as drawing CHEM-US-00166) (Fab, V domains shown)
VH: B4 VH
VL: B4 VL
modifications: labeling may sit on this chain; sites not stated; low molecular weight molecule (MW 1216) bound to the Fab, sites and chain not stated; 1-2 per Fab by MS; Gln 1 pyroglutamic acid as Fab^5 is defined in paragraph 370
B11: Ex-No 110, conjugate of Fab^5 (structure given only as drawing CHEM-US-00167) (Fab, V domains shown)
VH: B4 VH
VL: B4 VL
modifications: labeling may sit on this chain; sites not stated; low molecular weight molecule (MW 1201) bound to the Fab, sites and chain not stated; 1-2 per Fab by MS; Gln 1 pyroglutamic acid as Fab^5 is defined in paragraph 370
B12: Ex-No 111, conjugate of Fab^5 (structure given only as drawing CHEM-US-00168) (Fab, V domains shown)
VH: B4 VH
VL: B4 VL
modifications: labeling may sit on this chain; sites not stated; low molecular weight molecule (MW 1391) bound to the Fab, sites and chain not stated; 1-2 per Fab by MS; Gln 1 pyroglutamic acid as Fab^5 is defined in paragraph 370
B13: [Gd/DOTA-[2,5-(1,2,3,4-tetrahydroisoquinoline)]-C(═O)-Met-Gly-Lys*-C(═S)-NH-(1,4-Ph)-NH-C(═S)]p-Fab^5 (Fab, V domains shown)
VH: B4 VH
VL: B4 VL
modifications: labeling may sit on this chain; sites not stated; labeling portion (MW 1228) on amino groups of the Fab, sites and chain not stated; 1-2 per Fab by MS; Gln 1 pyroglutamic acid as Fab^5 is defined in paragraph 370

target: T1, CEACAM5 (R&D Systems, 4128-CM-050); assay: ELISA on immobilised CEACAM5, 4-parameter fit, duplicate
Outline: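 CEACAM5 immobilised at 0.1 μg/mL in 10 mM phosphate pH 7.2 overnight at 4° C, blocked with 5% BSA; Fab conjugates from about 10000 ng/mL in 14 threefold steps, 60 min at RT. HRP anti-human IgG (H+L) then ECL chemiluminescence; EC₅₀ by 4-parameter logistic fit, duplicates.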

Binder | EC50 [nM]
B1 | 0.13
B2 | 0.15
B3 | 0.14

target: human cancer-specific MUC1 peptide (PTL 1) (human); assay: ELISA on immobilised human cancer-specific MUC1 peptide, 4-parameter fit, duplicate (Example 6-2)

Binder | EC50 [nM]
B4 | 0.08
B5 | 0.07
B6 | 0.08
B7 | 0.11
B8 | 0.1
B9 | 0.09
B10 | 0.08
B11 | 0.19
B12 | 0.16
B13 | 0.19
